From patent US8053186

Columns and labels:
[1] = target: All1/Af9 fusion protein (endogenous, PER377 cells with t(9;11)), Q03164
[2] = target: All1/Af4 fusion protein (endogenous, SEMK2 cells with t(4;11)), Q03164
Sequence of All1/Af4 fusion protein (endogenous, SEMK2 cells with t(4;11)), Q03164 (Q03164 other isoform, or with tags, fused parts or gaps): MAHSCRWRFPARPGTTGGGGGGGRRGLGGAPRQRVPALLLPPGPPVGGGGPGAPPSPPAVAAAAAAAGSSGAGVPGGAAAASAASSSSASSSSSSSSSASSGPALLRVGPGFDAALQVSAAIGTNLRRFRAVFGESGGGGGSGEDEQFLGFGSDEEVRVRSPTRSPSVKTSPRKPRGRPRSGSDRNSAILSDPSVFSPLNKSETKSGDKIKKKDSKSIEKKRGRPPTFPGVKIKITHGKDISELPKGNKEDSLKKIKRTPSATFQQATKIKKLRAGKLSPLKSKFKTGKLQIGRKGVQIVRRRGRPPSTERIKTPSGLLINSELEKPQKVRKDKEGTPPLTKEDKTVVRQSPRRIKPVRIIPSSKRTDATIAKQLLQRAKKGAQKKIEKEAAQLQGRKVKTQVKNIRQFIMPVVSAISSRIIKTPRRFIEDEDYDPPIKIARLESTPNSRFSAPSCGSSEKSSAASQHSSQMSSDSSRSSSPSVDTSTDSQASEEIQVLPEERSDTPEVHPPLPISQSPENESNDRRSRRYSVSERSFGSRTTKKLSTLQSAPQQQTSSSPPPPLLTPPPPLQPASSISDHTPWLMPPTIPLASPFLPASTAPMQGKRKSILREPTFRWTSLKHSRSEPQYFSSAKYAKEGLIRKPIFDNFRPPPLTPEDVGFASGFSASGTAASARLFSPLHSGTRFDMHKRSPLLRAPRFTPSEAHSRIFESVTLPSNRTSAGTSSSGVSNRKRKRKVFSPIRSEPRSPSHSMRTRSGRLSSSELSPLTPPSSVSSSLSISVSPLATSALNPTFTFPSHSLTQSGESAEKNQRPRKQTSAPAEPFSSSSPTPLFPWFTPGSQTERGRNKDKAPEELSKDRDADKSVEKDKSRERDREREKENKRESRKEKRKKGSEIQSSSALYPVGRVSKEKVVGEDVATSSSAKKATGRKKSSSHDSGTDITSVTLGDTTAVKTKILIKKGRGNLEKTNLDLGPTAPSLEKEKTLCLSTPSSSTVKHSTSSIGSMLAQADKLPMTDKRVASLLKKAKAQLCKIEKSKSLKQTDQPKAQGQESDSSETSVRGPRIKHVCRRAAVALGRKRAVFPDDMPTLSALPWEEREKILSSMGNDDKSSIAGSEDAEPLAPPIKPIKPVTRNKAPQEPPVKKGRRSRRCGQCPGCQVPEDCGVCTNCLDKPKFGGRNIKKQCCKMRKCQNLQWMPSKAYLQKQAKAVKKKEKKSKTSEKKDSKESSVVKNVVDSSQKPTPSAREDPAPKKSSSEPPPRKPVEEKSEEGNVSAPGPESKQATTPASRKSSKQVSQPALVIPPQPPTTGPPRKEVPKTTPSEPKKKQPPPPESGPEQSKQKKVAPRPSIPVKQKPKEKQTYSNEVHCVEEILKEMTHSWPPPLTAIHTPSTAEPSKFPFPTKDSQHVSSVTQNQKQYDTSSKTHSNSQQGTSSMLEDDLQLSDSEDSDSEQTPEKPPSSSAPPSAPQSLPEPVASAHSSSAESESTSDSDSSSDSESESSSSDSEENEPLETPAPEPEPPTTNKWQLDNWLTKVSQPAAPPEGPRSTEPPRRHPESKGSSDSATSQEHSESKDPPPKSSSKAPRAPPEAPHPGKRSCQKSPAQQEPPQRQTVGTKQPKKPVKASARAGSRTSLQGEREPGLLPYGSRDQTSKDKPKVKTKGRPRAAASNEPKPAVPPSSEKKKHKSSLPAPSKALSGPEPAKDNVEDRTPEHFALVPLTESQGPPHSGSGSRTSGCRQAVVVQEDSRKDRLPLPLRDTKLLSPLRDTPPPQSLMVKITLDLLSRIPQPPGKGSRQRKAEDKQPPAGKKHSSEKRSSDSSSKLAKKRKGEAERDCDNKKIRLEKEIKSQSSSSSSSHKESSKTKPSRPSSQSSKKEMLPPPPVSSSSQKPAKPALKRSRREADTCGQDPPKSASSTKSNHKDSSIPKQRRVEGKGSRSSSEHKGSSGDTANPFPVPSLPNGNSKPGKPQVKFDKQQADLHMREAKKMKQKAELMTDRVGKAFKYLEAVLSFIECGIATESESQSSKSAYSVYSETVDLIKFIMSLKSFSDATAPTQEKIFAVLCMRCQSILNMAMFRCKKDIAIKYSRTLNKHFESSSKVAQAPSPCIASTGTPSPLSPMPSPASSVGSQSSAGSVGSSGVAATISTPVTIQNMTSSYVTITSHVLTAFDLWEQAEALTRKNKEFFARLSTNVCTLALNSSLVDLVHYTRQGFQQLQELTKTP

Sequence of All1/Af9 fusion protein (endogenous, PER377 cells with t(9;11)), Q03164 (Q03164 other isoform, or with tags, fused parts or gaps): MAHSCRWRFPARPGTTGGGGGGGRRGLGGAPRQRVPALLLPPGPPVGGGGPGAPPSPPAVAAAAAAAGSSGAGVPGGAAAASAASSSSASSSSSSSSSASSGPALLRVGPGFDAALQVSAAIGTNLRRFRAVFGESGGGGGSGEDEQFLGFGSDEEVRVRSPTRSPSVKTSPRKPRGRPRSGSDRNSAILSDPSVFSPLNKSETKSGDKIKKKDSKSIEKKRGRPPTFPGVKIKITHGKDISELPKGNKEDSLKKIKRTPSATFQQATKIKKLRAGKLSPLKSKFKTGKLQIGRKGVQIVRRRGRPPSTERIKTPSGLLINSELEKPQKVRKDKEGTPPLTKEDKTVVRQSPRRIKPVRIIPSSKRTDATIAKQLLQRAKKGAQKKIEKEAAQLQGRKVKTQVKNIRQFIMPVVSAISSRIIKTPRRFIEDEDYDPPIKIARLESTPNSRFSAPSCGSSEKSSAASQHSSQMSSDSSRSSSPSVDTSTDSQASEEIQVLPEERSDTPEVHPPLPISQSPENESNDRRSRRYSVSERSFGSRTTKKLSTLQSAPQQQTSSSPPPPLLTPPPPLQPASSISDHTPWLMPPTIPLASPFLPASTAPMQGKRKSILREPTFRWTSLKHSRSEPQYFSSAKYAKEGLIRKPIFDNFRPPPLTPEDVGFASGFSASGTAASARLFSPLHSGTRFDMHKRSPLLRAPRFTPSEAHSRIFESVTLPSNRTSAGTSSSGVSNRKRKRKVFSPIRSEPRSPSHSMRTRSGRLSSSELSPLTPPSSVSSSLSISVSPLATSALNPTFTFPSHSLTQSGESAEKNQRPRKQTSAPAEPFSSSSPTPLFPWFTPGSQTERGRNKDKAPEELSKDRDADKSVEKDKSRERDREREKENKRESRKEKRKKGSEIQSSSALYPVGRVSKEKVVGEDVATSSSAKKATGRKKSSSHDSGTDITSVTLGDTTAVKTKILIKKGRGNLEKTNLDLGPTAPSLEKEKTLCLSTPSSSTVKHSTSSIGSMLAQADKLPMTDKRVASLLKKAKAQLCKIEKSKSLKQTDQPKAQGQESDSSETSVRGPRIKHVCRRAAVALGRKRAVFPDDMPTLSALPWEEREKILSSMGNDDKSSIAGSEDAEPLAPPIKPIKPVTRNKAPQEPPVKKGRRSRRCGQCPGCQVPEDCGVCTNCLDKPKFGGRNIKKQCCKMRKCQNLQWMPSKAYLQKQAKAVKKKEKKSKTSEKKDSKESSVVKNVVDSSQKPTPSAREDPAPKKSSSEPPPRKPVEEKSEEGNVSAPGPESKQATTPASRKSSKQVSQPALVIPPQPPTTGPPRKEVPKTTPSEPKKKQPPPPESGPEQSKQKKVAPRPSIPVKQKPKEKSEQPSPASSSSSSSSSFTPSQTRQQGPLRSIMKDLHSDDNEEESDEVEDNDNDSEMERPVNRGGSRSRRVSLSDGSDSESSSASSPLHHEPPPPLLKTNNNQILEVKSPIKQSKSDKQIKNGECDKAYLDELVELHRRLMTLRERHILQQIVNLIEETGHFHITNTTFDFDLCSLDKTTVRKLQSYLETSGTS

B1: Drosha (endogenous, immunoprecipitated from SEMK2 or PER377 nuclear extracts) (protein)
chain: MMQGNTCHRMSFHPGRGCPRGRGGHGARPSAPSFRPQNLRLLHPQQPPVQYQYEPPSAPSTTFSNSPAPNFLPPRPDFVPFPPPMPPSAQGPLPPCPIRPPFPNHQMRHPFPVPPCFPPMPPPMPCPNNPPVPGAPPGQGTFPFMMPPPSMPHPPPPPVMPQQVNYQYPPGYSHHNFPPPSFNSFQNNPSSFLPSANNSSSPHFRHLPPYPLPKAPSERRSPERLKHYDDHRHRDHSHGRGERHRSLDRRERGRSPDRRRQDSRYRSDYDRGRTPSRHRSYERSRERERERHRHRDNRRSPSLERSYKKEYKRSGRSYGLSVVPEPAGCTPELPGEIIKNTDSWAPPLEIVNHRSPSREKKRARWEEEKDRWSDNQSSGKDKNYTSIKEKEPEETMPDKNEEEEEELLKPVWIRCTHSENYYSSDPMDQVGDSTVVGTSRLRDLYDKFEEELGSRQEKAKAARPPWEPPKTKLDEDLESSSESECESDEDSTCSSSSDSEVFDVIAEIKRKKAHPDRLHDELWYNDPGQMNDGPLCKCSAKARRTGIRHSIYPGEEAIKPCRPMTNNAGRLFHYRITVSPPTNFLTDRPTVIEYDDHEYIFEGFSMFAHAPLTNIPLCKVIRFNIDYTIHFIEEMMPENFCVKGLELFSLFLFRDILELYDWNLKGPLFEDSPPCCPRFHFMPRFVRFLPDGGKEVLSMHQILLYLLRCSKALVPEEEIANMLQWEELEWQKYAEECKGMIVTNPGTKPSSVRIDQLDREQFNPDVITFPIIVHFGIRPAQLSYAGDPQYQKLWKSYVKLRHLLANSPKVKQTDKQKLAQREEALQKIRQKNTMRREVTVELSSQGFWKTGIRSDVCQHAMMLPVLTHHIRYHQCLMHLDKLIGYTFQDRCLLQLAMTHPSHHLNFGMNPDHARNSLSNCGIRQPKYGDRKVHHMHMRKKGINTLINIMSRLGQDDPTPSRINHNERLEFLGDAVVEFLTSVHLYYLFPSLEEGGLATYRTAIVQNQHLAMLAKKLELDRFMLYAHGPDLCRESDLRHAMANCFEALIGAVYLEGSLEEAKQLFGRLLFNDPDLREVWLNYPLHPLQLQEPNTDRQLIETSPVLQKLTEFEEAIGVIFTHVRLLARAFTLRTVGFNHLTLGHNQRMEFLGDSIMQLVATEYLFIHFPDHHEGHLTLLRSSLVNNRTQAKVAEELGMQEYAITNDKTKRPVALRTKTLADLLESFIAALYIDKDLEYVHTFMNVCFFPRLKEFILNQDWNDPKSQLQQCCLTLRTEGKEPDIPLYKTLQTVGPSHARTYTVAVYFKGERIGCGKGPSIQQAEMGAAMDALEKYNFPQMAHQKRFIERKYRQELKEMRWEREHQEREPDETEDIKK
in vitro cleavage of miR-191 and miR-155 probes by immuno-purified Drosha [1]: Drosha containing All1/Af9 had less processing activity, similar to that of the Drosha:FLAG preparation
in vitro cleavage of miR-191 and miR-155 probes by immuno-purified Drosha [2]: Drosha containing All1/Af4 exhibited the strongest processing activity
